Assay results published in US20170252458A1 (EISAI R AND D MANAGEMENT, published 2017).
Values joined by “and” are separate entries in the source; they are usually repeats but may differ in a detail not shown here. Equal entries are not always repeated.

B1: MORAb-003 (antibody, human IgG1, kappa, V domains shown)
VH: EVQLVESGGGVVQPGRSLRLSCSASGFTFSGYGLSWVRQAPGKGLEWVAMISSGGSYTYYADSVKGRFAISRDNAKNTLFLQMDSLRPEDTGVYFCARHGDDPAWFAYWGQGTPVTVSS
VL: DIQLTQSPSSLSASVGDRVTITCSVSSSISSNNLHWYQQKPGKAPKPWIYGTSNLASGVPSRFSGSGSGTDYTFTISSLQPEDIATYYCQQWSSYPYMYTFGQGTKVEIKR
notes: Humanized anti-human folate receptor alpha, unconjugated; also called farletuzumab
B2: MORAb003-DBCO-ER1237508 (antibody, human IgG1, kappa, V domains shown)
VH: B1 VH
VL: B1 VL
modifications: NHS-PEG4-DBCO on lysines, then azide-PEG3-disulfide-pAB-eribulin by SPAAC; sites not given
notes: Antibody-drug conjugate
B3: MORAb003-ER1244129 (antibody, human IgG1, kappa, V domains shown)
VH: B1 VH
VL: B1 VL
modifications: NHS-PEG3-triazole-PEG3-disulfide-pAB-eribulin on lysines, sites not given
notes: Antibody-drug conjugate; DAR 0.24 (LC-MS)
B4: MORAb003-ER1231679 (antibody, human IgG1, kappa, V domains shown)
VH: B1 VH
VL: B1 VL
modifications: Mal-PEG2-Ala-Ala-Asn-pAB-eribulin on interchain cysteines, sites not given
notes: Antibody-drug conjugate
B5: MORAb003-ER1242288 (antibody, human IgG1, kappa, V domains shown)
VH: B1 VH
VL: B1 VL
modifications: NHS-PEG9-Val-Cit-pAB-eribulin on lysines, sites not given
notes: Antibody-drug conjugate preparation; DAR 0.00 (LC-MS)
B6: MORAb003-DBCO-ER1138856 (antibody, human IgG1, kappa, V domains shown)
VH: B1 VH
VL: B1 VL
modifications: NHS-PEG4-DBCO on lysines, then azide-PEG3-sulfonamide-pAB-eribulin by SPAAC; sites not given
notes: Antibody-drug conjugate
B7: MORAb003-ER1159569 (Lot NB3073-88L) (antibody, human IgG1, kappa, V domains shown)
VH: B1 VH
VL: B1 VL
modifications: Mal-PEG2-Val-Cit-pAB-eribulin on interchain cysteines, sites not given
notes: Antibody-drug conjugate; also called MORAb-003-VCP-eribulin
B8: MORAb003-PEG2-eribulin (antibody, human IgG1, kappa, V domains shown)
VH: B1 VH
VL: B1 VL
modifications: Mal-PEG2-eribulin (non-cleavable) on interchain cysteines, sites not given
notes: Antibody-drug conjugate
B9: MORAb003-PEG4-eribulin (antibody, human IgG1, kappa, V domains shown)
VH: B1 VH
VL: B1 VL
modifications: Mal-PEG4-eribulin (non-cleavable) on interchain cysteines, sites not given
notes: Antibody-drug conjugate
B10: MORAb003-DBCO-PEG2 eribulin (antibody, human IgG1, kappa, V domains shown)
VH: B1 VH
VL: B1 VL
modifications: NHS-PEG4-DBCO on lysines, then azido-PEG2-eribulin by SPAAC; sites not given
notes: Antibody-drug conjugate
B11: MORAb003-ER1236940 (antibody, human IgG1, kappa, V domains shown)
VH: B1 VH
VL: B1 VL
modifications: NHS-PEG2-Val-Cit-pAB-eribulin on lysines, sites not given
notes: Antibody-drug conjugate; DAR 0.72 (LC-MS)
B12: MORAb003-ER1231690 (antibody, human IgG1, kappa, V domains shown)
VH: B1 VH
VL: B1 VL
modifications: Mal-PEG2-(Ala-Ala-Asn-pAB)2-eribulin on interchain cysteines, sites not given
notes: Antibody-drug conjugate
B13: MORAb003-ER1159569 (Lot NB3142-62A) (antibody, human IgG1, kappa, V domains shown)
VH: B1 VH
VL: B1 VL
modifications: Mal-PEG2-Val-Cit-pAB-eribulin on interchain cysteines, sites not given
notes: as for B7
B14: MORAb003-ER1236941 (antibody, human IgG1, kappa, V domains shown)
VH: B1 VH
VL: B1 VL
modifications: NHS-(CH2)5-Val-Cit-pAB-eribulin on lysines, sites not given
notes: Antibody-drug conjugate; DAR 0.77 (LC-MS)
B15: MORAb003-ER1237505 (antibody, human IgG1, kappa, V domains shown)
VH: B1 VH
VL: B1 VL
modifications: Mal-PEG4-triazole-PEG3-sulfonamide-pAB-eribulin on interchain cysteines, sites not given
notes: Antibody-drug conjugate
B16: MORAb003-ER1242287 (antibody, human IgG1, kappa, V domains shown)
VH: B1 VH
VL: B1 VL
modifications: Mal-PEG8-Val-Cit-pAB-eribulin on interchain cysteines, sites not given
notes: Antibody-drug conjugate
B17: MORAb003-ER1231691 (antibody, human IgG1, kappa, V domains shown)
VH: B1 VH
VL: B1 VL
modifications: NHS-PEG2-Ala-Ala-Asn-pAB-eribulin on lysines, sites not given
notes: Antibody-drug conjugate; DAR 0.37 (LC-MS)
B18: MORAb003-ER1243700 (antibody, human IgG1, kappa, V domains shown)
VH: B1 VH
VL: B1 VL
modifications: NHS-PEG3-triazole-PEG3-Val-Cit-pAB-eribulin on lysines, sites not given
notes: as for B5
B19: MORAb003-ER1235638 (antibody, human IgG1, kappa, V domains shown)
VH: B1 VH
VL: B1 VL
modifications: Mal-(CH2)5-Val-Cit-pAB-eribulin on interchain cysteines, sites not given
notes: Antibody-drug conjugate
B20: MORAb003-ER1244623 (antibody, human IgG1, kappa, V domains shown)
VH: B1 VH
VL: B1 VL
modifications: NHS-PEG3-triazole-PEG3-sulfonamide-pAB-eribulin on lysines, sites not given
notes: Antibody-drug conjugate; DAR 0.55 (LC-MS)
B21: MORAb003-DBCO-PEG4 eribulin (antibody, human IgG1, kappa, V domains shown)
VH: B1 VH
VL: B1 VL
modifications: NHS-PEG4-DBCO on lysines, then azido-PEG4-eribulin by SPAAC; sites not given
notes: Antibody-drug conjugate
B22: MORAb003-ER1237504 (antibody, human IgG1, kappa, V domains shown)
VH: B1 VH
VL: B1 VL
modifications: Mal-PEG4-triazole-PEG3-disulfide-pAB-eribulin on interchain cysteines, sites not given
notes: Antibody-drug conjugate
B23: MORAb003-DBCO-PEG4 VCP eribulin (antibody, human IgG1, kappa, V domains shown)
VH: B1 VH
VL: B1 VL
modifications: NHS-PEG4-DBCO on lysines, then azido-PEG4-Val-Cit-pAB-eribulin by SPAAC; sites not given
notes: Antibody-drug conjugate
B24: 111B10-zu (antibody, human IgG1, kappa, V domains shown)
VH: EVQLVESGGGLVQPGGSLRLSCAASGFSLNNYAMSWVRQAPGKGLEWIGSISTGGLAFYANWAKGRFTISRDNSKNTLYLQMNSLRAEDTAVYYCARNGGGSYIFYYFDLWGQGTLVTVSS
VL: DIQMTQSPSSLSASVGDRVTITCQASQSISSYLSWYQQKPGKAPKLLIYSASTLASGVPSRFSGSGSGTDFTLTISSLQCEDAATYYCQSYYDIGTSTFGGGTKVEIKR
notes: Humanized anti-human mesothelin with unpaired cysteine at LCcys80; parental mAb in Biacore; also called 111810 zu
B25: 201C15-zu (antibody, human IgG1, kappa, V domains shown)
VH: QVQLVESGGGLVQPGGSLRLSCSASGIDLSSYAMGWVRQAPGKGLEYIGTINIGGRVYYASWAKGRFTISRDNSKNTLYLQMNSLRAEDTAVYYCARYYNGGSYDIWGQGTLVTVSS
VL: DIQMTQSPSTLSASVGDRVTITCQASESIYRVLAWYQQKPGKAPKLLIYDTSTLASGVPSRFSGSGSGTEFTLTISSLQCDDAATYYCQGGYYADSYGIAFGGGTKVEIKR
notes: Humanized anti-human mesothelin with unpaired cysteine at LCcys80; parental mAb in Biacore
B26: 346C6-xi (antibody, human IgG1, kappa, V domains shown)
VH: QSVEESGGRLVKPDESLTLTCTASGFSLSSYAMIWVRQAPGEGLEWIGTISTGGITYYASWAKGRFTISKTSTTVDLKITSPTTEDTATYFCARGGYAASSAYYLPYYFDLWGQGTLVTVSS
VL: AAVLTQTPSPVSAAVGGTVTISCQSSQSVYNNNNLAWFQQKPGQPPKLLIYLASTLASGVPSRFSGSGSGTQFTLTISGVQCDDAATYYCLGGCDDDADTFAFGGGTEVVVKR
notes: Rabbit-human chimeric anti-human mesothelin with unpaired cysteine at LCcys80; parental mAb in Biacore
B27: 201C15-xi (antibody, human IgG1, kappa, V domains shown)
VH: QSVKESGGRLVTPGTPLTLTCTVSGIDLSSYAMGWFRQAPGKGLEYIGTINIGGRVYYASWAKGRFTISRTSTTVDLKAPSLTAEDTATYFCARYYNGGSYDIWGPGTLVTVSL
VL: DVVMTQTPASASEPVGGTVTIKCQASESIYRVLAWYQQKPGQPPKLLIYDTSTLASGAPSRFKGSGYGTEFTLTISGVQCEDAATYYCQGGYYADSYGIAFGGGTEVVVKR
notes: as for B26

What follows are binders tested against T1, Recombinant human folate receptor alpha (human, UniProt P15328 25-234) (assay: ELISA, recombinant human FRA coated).
T1 construct: also called FRA; FR
T1 sequence (P15328 25-234 limits assumed): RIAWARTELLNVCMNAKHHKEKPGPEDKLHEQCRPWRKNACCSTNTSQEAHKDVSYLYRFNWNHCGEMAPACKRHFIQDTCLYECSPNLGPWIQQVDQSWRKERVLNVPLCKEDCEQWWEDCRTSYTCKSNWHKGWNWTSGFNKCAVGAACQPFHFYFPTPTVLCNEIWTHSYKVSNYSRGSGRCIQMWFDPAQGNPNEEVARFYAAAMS
Protocol: Coating solution was discarded and the plates were washed three times using 1× PBS with 0.05% Tween-20 (PBST) buffer. Plates were blocked in 300 μL blocking buffer (1% BSA in PBST) at room temperature for 2 hours on an orbital shaker. […] Blocking buffer was discarded and 100 μL/well of diluted antibody was added to the plates. Plates were incubated at room temperature for 2 hours on an orbital shaker. Antibody solution was discarded and plates were washed three times using PBST. 100 μL/well of goat-anti-human IgG (H+L)-HRP (1:10,000 dilution in blocking buffer) solution was added to the plates, and plates were incubated at room temperature for 1 hour on an orbital shaker. Secondary antibody solution was discarded and plates were washed three times using PBST. 100 μL/well of QuantaBlu fluorogenic peroxidase substrate working solution (Thermo, Cat No. 15169) was added to the plates, and plates were incubated at room temperature for 30 min. Fluorescence was read at excitation 325 nm/emission 420 nm using a SpectraMax M5 (Molecular Devices). Data was analyzed using SoftMaxPro 5.4.2 software with 4-parameter fitting.
B1 was tested, and the EC50 was 0.00629 µg/mL and 0.04 nM. With B2 the EC50 was 0.0241 µg/mL and 0.16 nM. With B3 the EC50 was 0.0143 µg/mL and 0.1 nM. With B4 the EC50 was 0.0183 µg/mL and 0.12 nM. For B5, the EC50 was 0.0144 µg/mL and 0.1 nM. In the case of B6, the EC50 is reported as 0.015 µg/mL and 0.1 nM. In the case of B7, the EC50 is reported as 0.0226 µg/mL and 0.15 nM. B8 was tested, and the EC50 was 0.00696 µg/mL and 0.05 nM. In the case of B9, the EC50 is reported as 0.00931 µg/mL and 0.06 nM. For B10, the EC50 was 0.0191 µg/mL and 0.13 nM. With B11 the EC50 was 0.017 µg/mL and 0.11 nM. For B12, the EC50 was 0.00892 µg/mL and 0.06 nM. B13 was tested, and the EC50 was 0.12 nM and 0.0182 µg/mL. B14 was tested, and the EC50 was 0.013 µg/mL and 0.09 nM. B15 was tested, and the EC50 was 0.0183 µg/mL and 0.12 nM. In the case of B16, the EC50 is reported as 0.0215 µg/mL and 0.14 nM. In the case of B17, the EC50 is reported as 0.0115 µg/mL and 0.08 nM. With B18 the EC50 was 0.00622 µg/mL and 0.04 nM. In the case of B19, the EC50 is reported as 0.0153 µg/mL and 0.1 nM. B20 was tested, and the EC50 was 0.00454 µg/mL and 0.03 nM. In the case of B21, the EC50 is reported as 0.0133 µg/mL and 0.09 nM. For B22, the EC50 was 0.0298 µg/mL and 0.2 nM. In the case of B23, the EC50 is reported as 0.016 µg/mL and 0.11 nM.

These binders were tested against T2, Recombinant human mesothelin (human, UniProt Q13421 296-580, limits assumed) (assay: Biacore T100, antibody captured on anti-human IgG, antigen injected, 1:1 Langmuir).
T2 construct: also called MSLN
T2 sequence (Q13421 other isoform, or with tags, fused parts or gaps limits assumed): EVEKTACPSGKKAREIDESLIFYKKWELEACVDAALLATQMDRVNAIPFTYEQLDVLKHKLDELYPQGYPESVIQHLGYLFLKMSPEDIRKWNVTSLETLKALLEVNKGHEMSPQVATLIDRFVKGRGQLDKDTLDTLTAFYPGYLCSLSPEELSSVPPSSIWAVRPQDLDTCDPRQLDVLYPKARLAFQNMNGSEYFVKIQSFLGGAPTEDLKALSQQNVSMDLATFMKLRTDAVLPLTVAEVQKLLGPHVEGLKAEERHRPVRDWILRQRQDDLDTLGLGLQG
Protocol: Antibody concentrations were adjusted to 2 μg/mL in HBS-P+ buffer (GE Healthcare). Unmodified antibodies, or ADCs, were injected over an anti-human IgG sensor on a BIAcore T100 (GE Healthcare) for 1 min at a flow rate of 10 μL/min. To record the antigen association to the captured antibody, a series of increasing concentrations of antigen was injected for 300 sec at a flow rate of 30 μL/min. […] The dissociation of antigen was monitored for 30 min at the same flow rate. The sensor surface was regenerated by injecting 3 M MgCl₂ for 2×30 sec at a flow rate of 30 μL/min. Sensograms were analyzed with Biacore T100 Evaluation Software using a 1:1 Langmuir binding model.
Binding affinities of the parental antibodies were determined by Biacore analysis, as described above in section 1.6.1. Aggregation levels for all anti-human mesothelin ADCs were determined by SEC-HPLC and the DAR was analyzed using HIC-HPLC. In vitro potency was evaluated using a Crystal Violet cell-based cytotoxicity assay in A3 (A431 stabily transfected with human mesothelin (MSLN), MSLN^hi), OVCAR3 (human ovarian, MSLN^hi), HEC-251 (human endometroid, MSLN^med), H226 (human lung squamous cell mesothelioma, MSLN^lo, and A431 parental (MSLN^neg) cells. The results of the DAR, aggregation, and cytotoxicity analyses are shown in Table 50.
B24 was tested, and the Kd was 8.5 nM. With B25 the Kd was 4.2 nM. Binder B26 has a Kd of 1.4 nM. B27 was tested, and the Kd was 1.1 nM.
